Measurements: patent US11826400B2, “Neuregulin based compositions and uses thereof for preventing, treating or delaying the myocardial ischemia-reperfusion injury” (ZENSUN (SHANGHAI) SCIENCE & TECHNOLOGY LIMITED, priority 2010, dated 2023)

System: myocardial ischemia reperfusion in rat
Experiment: Therapeutic effect on myocardial ischemia reperfusion in rat (coronary ligation 45 min, reperfusion 2 h, TCC staining of heart sections)
Assay type: in vivo, Wistar rats
Details: P<0.05
Protocol: Wistar rats (male, 200˜240 g) were divided into groups and administered with different dosages of rhNRG-1, placebo or rhThymosin-β4 (as shown in Table 1) after anaesthetized with intra-abdominal injection of 20% urethane (5 ml/kg). Thirty minutes after the drug started to be given to the rats, the anterior descending limb of the left coronary artery was ligated for 45 minutes to cause partial myocardium turned white obviously in the ligation area. After that the ligation thread was loosen to keep coronary blood flow for 2 hours and then take out the heart rapidly and wash vascular fat away with normal saline, and then freeze the heart in −30° C. for one hour.
Cut the heart parallelly from apex to base along coronary sulcus to myocardium sections with the thickness of 1 mm, and then put them into TCC dye liquor for 20 min in 37° C. in a shaker. After staining extra dye was washed immediately with water, and then the sections were put into 4% formalin for one hour. Photo and analyze the total size and the infarction size of were analyzed with Image Analysis Software. Infarction size ratio equals to the ratio of the infarction size and the total size of the myocardium section.

B1: rhNRG-1: produced by Zensun (Shanghai) Science & Technology Ltd, having the amino acids of SEQ ID NO:1 (177-237 residues of NRG-1β2 isoform) (protein, listed as Homo sapiens)
chain: SHLVKCAEKEKTFCVNGGECFMVKDLSNPSRYLCKCPNEFTGDRCQNYVMASFYKAEELYQ
B1 was tested, and the “Infarction size compared with Group A (placebo)” value (Group B, 10 μg/kg/h continuous infusion) was “significantly smaller than that of Group A” and the “Infarction size compared with Group A (placebo)” value (Group C, 30 μg/kg/h continuous infusion) was “significantly smaller than that of Group A”.
